Test results from patent publication US20240317816A1, “PEPTIDES FOR IMMUNOTHERAPY” (Genevive, Inc., priority 2021, published 2024).

How the values were obtained:
[1] = biological target: T1, CXCR4 (Homo sapiens, UniProt P61073); test: SelectScreen agonist/antagonist assay, chemokine receptor expressing U2OS cells; assay type: cell-based
T1 construct: host or cells: U2OS

[2] = test system: RENCA cells; test: RENCA murine adenocarcinoma model, anti-tumor activity; assay type: in vivo, BALB/c female mice; settings: for tumor volume: 2.5 mg/kg peritumorally daily; for survival: initial dosing
Experimental: (§1) To determine anti-tumor activity of SG-3-00802 in vivo, the RENCA murine adenocarcinoma model was used. It is a syngeneic, standardized experimental model of metastatic RCC. Briefly, BALB/c female mice were inoculated subcutaneously with RENCA cells. Established tumors were treated daily with 2.5 mg/kg SG-3-00802 peritumorally, alone or in combination with intraperitoneal administration of 10 mg/kg anti-PD-1 antibody.
Additional studies were performed to test survival and tumor volume responses to a re-challenge event. In one study, mice were allocated into dosing groups when tumors reached ˜100 mm^3. During the initial dosing study, time 0 was the first day of seven days of dosing. […] Re-implantation was completed on day 39 after dosing completion. Treated mice were tumor free for >20 days before being re-challenge. […] Tumor volume and survival was monitored as previously described. In the re-challenge experiment, time 0 is day 10 after re-challenge dosing.
as §1, with “SG-3-05021” for “SG-3-00802”, “used.” for “used. It is a syngeneic, standardized experimental model of metastatic RCC.”

[3] = biological target: T2, CXCR3 (Homo sapiens, UniProt P49682); test: SelectScreen agonist/antagonist assay, CXCR3-bla U2OS cells; assay type: cell-based; set-up: TEV protease site; Gal4-VP16 transcription factor ('Ga14-VP16' [sic]); Tango cell line; host or cells: Tango GPCR-bla U2OS; settings: for SelectScreen Antagonist Mode: control agonist I-TAC at EC80
T2 sequence (P49682 1-368): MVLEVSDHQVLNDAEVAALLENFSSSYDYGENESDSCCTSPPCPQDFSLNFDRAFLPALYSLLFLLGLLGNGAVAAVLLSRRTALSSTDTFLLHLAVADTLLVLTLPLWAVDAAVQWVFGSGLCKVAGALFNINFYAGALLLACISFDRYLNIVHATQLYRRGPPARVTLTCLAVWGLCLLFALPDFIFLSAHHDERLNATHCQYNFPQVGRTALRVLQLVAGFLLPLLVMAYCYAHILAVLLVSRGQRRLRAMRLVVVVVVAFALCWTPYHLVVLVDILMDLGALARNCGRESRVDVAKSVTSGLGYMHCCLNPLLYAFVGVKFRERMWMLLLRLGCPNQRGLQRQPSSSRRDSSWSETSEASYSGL
Experimental: In agonist assays, chemokine receptor expressing U2OS cells are thawed and resuspended in Assay Media (DMEM, 1% dialyzed FBS, 25 mM HEPES pH 7.3, 0.1 mM NEAA, 100 U/mL/100 μg/mL Pen/Strep) to a concentration of 312,500 cells/mL. 4 μL of a 10× serial dilution of I-TAC (control agonist starting concentration, 500 nM) or compounds are added to appropriate wells of a 384-well TC-Treated assay plate. 32 μL of cell suspension (10,000 cells) is added to each well. 4 μL of Assay Media is added to all wells to bring the final assay volume to 40 μL. The plate is incubated for 16-24 hours at 37° C./5% CO2 in a humidified incubator. 8 μL of 1 μM Substrate+Solution D Loading Solution is added to each well and the plate is incubated for 2 hours at room temperature. The plate is read on a fluorescence plate reader.
In antagonist assays, CXCR3-bla U2OS cells were thawed and prepared as described above for the Agonist assay. 4 μL of 10× compounds or assay media was added to appropriate wells of a TC-Treated assay plate. 32 μL of cell suspension was added to the wells and pre-incubated at 37° C./5% CO2 in a humidified incubator with compounds and control antagonist titration for 30 minutes. 4 μL of 10× control agonist I-TAC at the pre-determined EC80 concentration is added to wells containing the control antagonist or compounds. The plate is incubated for 16-24 hours at 37° C./5% CO2 in a humidified incubator. 8 μL of 1 μM Substrate+Solution D Loading Solution is added to each well and the plate is incubated for 2 hours at room temperature. The plate is read on a fluorescence plate reader.
Tango™ CXCR3-bla U2OS cells contain the human chemokine (C-X-C motif) receptor 3 linked to a TEV protease site and a Ga14-VP16 transcription factor stably integrated into the Tango™ GPCR-bla U2OS cell line. This parental cell line stably expresses a beta-arrestin/TEV protease fusion protein and the beta-lactamase reporter gene under the control of a UAS response element. The Tango™ CXCR3-bla U2OS cells have been functionally validated for a response to I-TAC (CXCL11).

[4] = biological target: T3, CCR9 (Homo sapiens, UniProt P51686); test: gpcrMAX PathHunter β-Arrestin Assay; assay type: cell-based
T3 construct: expressed in transfected cells
T3 sequence (P51686 1-369): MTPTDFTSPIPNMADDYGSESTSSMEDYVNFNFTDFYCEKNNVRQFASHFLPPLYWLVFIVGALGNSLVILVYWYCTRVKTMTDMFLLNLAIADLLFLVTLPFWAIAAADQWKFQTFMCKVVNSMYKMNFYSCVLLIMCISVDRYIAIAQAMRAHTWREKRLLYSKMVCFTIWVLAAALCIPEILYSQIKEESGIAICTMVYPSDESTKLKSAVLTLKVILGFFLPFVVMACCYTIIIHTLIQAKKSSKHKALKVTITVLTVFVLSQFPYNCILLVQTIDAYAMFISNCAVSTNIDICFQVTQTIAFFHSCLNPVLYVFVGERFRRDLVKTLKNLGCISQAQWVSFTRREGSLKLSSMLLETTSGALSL
Description: The PathHunter® β-Arrestin Assay monitored activation of a panel of 168 G-protein coupled receptors (GPCRs) with […] activation of the GPCR in agonist and antagonist mode.
where the test sample is the peptide, the vehicle control is DMSO (0% activity), and the control ligand is control compound (100% activity).
Peptides SG-3-00802 and SG-3-05021 were identified as an agonist, an antagonist, a PAM (Positive Allosteric Modulator), or an inverse-agonist. Agonist, antagonist, PAM, and inverse-agonist were identified according to the guidelines in Table 8. The basal activity/noise is a % activity of −20% to 20% for both agonist and antagonist modes. A PAM (Positive Allosteric Modulator) binds to a receptor, at a different site than the agonist, to change the receptor's response to the agonist. An inverse-Agonist is a binding partner with agonistic shutting down of basal activity in the cell. An antagonist antagonizes the activity of a particular binding partner.

[5] = in combination with 10 mg/kg i.p. anti-PD-1

T1 sequence (P61073 whole entry): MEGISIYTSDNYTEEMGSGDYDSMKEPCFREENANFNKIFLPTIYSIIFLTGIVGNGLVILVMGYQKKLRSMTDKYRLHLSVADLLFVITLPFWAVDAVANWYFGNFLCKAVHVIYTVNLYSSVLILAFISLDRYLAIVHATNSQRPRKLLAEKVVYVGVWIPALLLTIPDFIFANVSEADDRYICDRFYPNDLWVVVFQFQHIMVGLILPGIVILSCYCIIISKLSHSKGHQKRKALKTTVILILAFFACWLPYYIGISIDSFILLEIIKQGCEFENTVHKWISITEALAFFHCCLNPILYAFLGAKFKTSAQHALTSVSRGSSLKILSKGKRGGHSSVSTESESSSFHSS

Row | Sequence | SelectScreen Agonist Mode [1] | tumor volume ([2]; alone, vs PBS) | tumor volume [2, 5] | survival ([2]; in combination with anti-PD-1) | survival ([2]; peptide alone) | SelectScreen Agonist Mode [3] | SelectScreen Antagonist Mode [3] | SelectScreen Antagonist Mode [1] | # of animals with complete tumor regression out of total animals per group (primary study) ([2]; primary study) | % Agonist Activity [4] [%] | % Antagonist Activity [4] [%]
1 | LGKTDWIEKYFKVKKEKIDKMQRFLQG (peptide for immunotherapy; SG-3-05021) | no agonistic activity and No | decrease in tumor volume | decrease in tumor volume | survived a longer time | survived a longer time | no agonistic activity and No | reverse antagonistic activity (sensitization) and PAM |  |  |  | 
2 | MKVRPSVKPMCEKCKIIRRKGRVMVICENPKHKQRQG [SG-3-00802] | no agonistic activity and No | robust decrease in tumor volume | robust decrease in tumor volume | increased survival | increased survival | weak agonistic activity and No | potent reverse antagonistic activity (sensitization) and PAM | moderate antagonistic activity and Yes | 2/12 | 2 | −48
